{"source": "paper PMC6195595", "key": {"[1]": {"molecular_target": "Kj12C N-terminal docking domain (Xenorhabdus stockiae KJ12.1)", "experiment": "ITC; 50 µM NDD (or Kj12C construct) in the cell titrated with 1 mM CDD peptide; 20 °C; 50 mM sodium phosphate pH 6.5, 100 mM NaCl; one site binding model; three independent titrations"}, "[2]": {"molecular_target": "Kj12C-^NDD (N-terminal docking domain of Kj12C) (Xenorhabdus stockiae KJ12.1)", "experiment": "ITC; 50 µM ^NDD protein in the cell titrated with 1 mM ^CDD peptide or variant, 20 °C, 50 mM sodium phosphate pH 6.5, 100 mM NaCl, one site binding model, three independent titrations"}, "[3]": {"molecular_target": "Kj12B N-terminal docking domain (Xenorhabdus stockiae KJ12.1)", "experiment": "ITC; 50 µM NDD (or Kj12C construct) in the cell titrated with 1 mM CDD peptide; 20 °C; 50 mM sodium phosphate pH 6.5, 100 mM NaCl; one site binding model; three independent titrations"}, "[4]": {"molecular_target": "Kj12C-NDD Q26K, E28A (Xenorhabdus stockiae KJ12.1)", "experiment": "ITC; 50 µM NDD (or Kj12C construct) in the cell titrated with 1 mM CDD peptide; 20 °C; 50 mM sodium phosphate pH 6.5, 100 mM NaCl; one site binding model; three independent titrations"}, "[5]": {"molecular_target": "Kj12C-NDD-Cterm (full-length Kj12C module) (Xenorhabdus stockiae KJ12.1)", "experiment": "ITC; 50 µM NDD (or Kj12C construct) in the cell titrated with 1 mM CDD peptide; 20 °C; 50 mM sodium phosphate pH 6.5, 100 mM NaCl; one site binding model; three independent titrations"}, "[6]": {"molecular_target": "Kj12B-NDD K28E (Xenorhabdus stockiae KJ12.1)", "experiment": "ITC; 50 µM NDD (or Kj12C construct) in the cell titrated with 1 mM CDD peptide; 20 °C; 50 mM sodium phosphate pH 6.5, 100 mM NaCl; one site binding model; three independent titrations"}, "[7]": {"molecular_target": "Kj12B-NDD K26Q, K28E (Xenorhabdus stockiae KJ12.1)", "experiment": "ITC; 50 µM NDD (or Kj12C construct) in the cell titrated with 1 mM CDD peptide; 20 °C; 50 mM sodium phosphate pH 6.5, 100 mM NaCl; one site binding model; three independent titrations"}, "[8]": {"molecular_target": "Kj12B-NDD K24R, K26Q, K28E (Xenorhabdus stockiae KJ12.1)", "experiment": "ITC; 50 µM NDD (or Kj12C construct) in the cell titrated with 1 mM CDD peptide; 20 °C; 50 mM sodium phosphate pH 6.5, 100 mM NaCl; one site binding model; three independent titrations"}, "[9]": {"molecular_target": "Kj12B-^NDD (N-terminal docking domain of Kj12B) (Xenorhabdus stockiae KJ12.1)", "experiment": "ITC; 50 µM ^NDD protein in the cell titrated with 1 mM ^CDD peptide or variant, 20 °C, 50 mM sodium phosphate pH 6.5, 100 mM NaCl, one site binding model, three independent titrations"}, "[10]": {"molecular_target": "Kj12A-^NDD (N-terminal docking domain of Kj12A) (Xenorhabdus stockiae KJ12.1)", "experiment": "ITC; 50 µM ^NDD protein in the cell titrated with 1 mM ^CDD peptide or variant, 20 °C, 50 mM sodium phosphate pH 6.5, 100 mM NaCl, one site binding model, three independent titrations"}, "[11]": {"molecular_target": "Kj12B thiolation domain with CDD (Xenorhabdus stockiae KJ12.1)", "experiment": "ITC; Kj12B T-domain-CDD in the cell (given as 50 mM) titrated with 1 mM Kj12C-NDD in the syringe; 20 °C; 50 mM sodium phosphate pH 6.5, 100 mM NaCl; one site binding model"}}}
{"substance": "Kj12A-CDDshort E1169R, H1171E peptide", "values": [{"measurement": "stoichiometry N", "setting": "[1]", "value": 1.3, "unit": "sites"}]}
{"substance": "Kj12A-^CDD peptide (C-terminal docking domain of Kj12A)", "values": [{"measurement": "Kd", "setting": "[2]", "value": 100, "unit": "µM"}]}
{"substance": "Kj12A-^CDD peptide with E1169R and H1171E (double mutant)", "values": [{"measurement": "Kd", "setting": "[2]", "value": 3.5, "unit": "µM"}]}
{"substance": "Kj12B-CDDshort R1565E peptide", "values": [{"measurement": "stoichiometry N", "setting": "[3]", "value": 1.15, "unit": "sites"}]}
{"substance": "Kj12B-CDDshort peptide", "values": [{"measurement": "Kd", "setting": "[4]", "value": 80, "unit": "µM"}, {"measurement": "stoichiometry N", "setting": "[4]", "value": 1, "unit": "sites"}, {"measurement": "Kd", "setting": "[5]", "value": 8, "unit": "µM"}, {"measurement": "stoichiometry N", "setting": "[5]", "value": 1, "unit": "sites"}, {"measurement": "Kd", "setting": "[6]", "value": 33, "unit": "µM"}, {"measurement": "stoichiometry N", "setting": "[6]", "value": 1, "unit": "sites"}, {"measurement": "Kd", "setting": "[7]", "value": 20.4, "unit": "µM"}, {"measurement": "stoichiometry N", "setting": "[7]", "value": 1, "unit": "sites"}, {"measurement": "stoichiometry N", "setting": "[8]", "value": 0.97, "unit": "sites"}]}
{"substance": "Kj12B-^CDD peptide (C-terminal docking domain of Kj12B)", "values": [{"measurement": "Kd", "setting": "[9]", "value": 62, "unit": "µM"}, {"measurement": "Kd", "setting": "[2]", "value": 8, "unit": "µM"}, {"measurement": "Kd", "setting": "[10]", "value": 8, "unit": "µM"}]}
{"substance": "Kj12B-^CDD peptide R1565E", "values": [{"measurement": "Kd", "setting": "[9]", "value": 13, "unit": "µM"}]}
{"substance": "Kj12B-^CDD_(short) peptide", "values": [{"measurement": "Kd", "setting": "[2]", "value": 15, "unit": "µM"}]}
{"substance": "Kj12C N-terminal docking domain (domain or fragment)", "values": [{"measurement": "Kd", "setting": "[11]", "value": 19, "unit": "µM"}, {"measurement": "stoichiometry N", "setting": "[11]", "value": 1.2, "unit": "sites"}]}
